# Test results published in article PMC8641065 (The New phytologist, 2021).
# B1: COP1 (constitutive photomorphogenic1), endogenous (natural protein, UniProt P43254 1-675, looked up)
# chain: MEEISTDPVVPAVKPDPRTSSVGEGANRHENDDGGSGGSEIGAPDLDKDLLCPICMQIIKDAFLTACGHSFCYMCIITHLRNKSDCPCCSQHLTNNQLYPNFLLDKLLKKTSARHVSKTASPLDQFREALQRGCDVSIKEVDNLLTLLAERKRKMEQEEAERNMQILLDFLHCLRKQKVDELNEVQTDLQYIKEDINAVERHRIDLYRARDRYSVKLRMLGDDPSTRNAWPHEKNQIGFNSNSLSIRGGNFVGNYQNKKVEGKAQGSSHGLPKKDALSGSDSQSLNQSTVSMARKKRIHAQFNDLQECYLQKRRQLADQPNSKQENDKSVVRREGYSNGLADFQSVLTTFTRYSRLRVIAEIRHGDIFHSANIVSSIEFDRDDELFATAGVSRCIKVFDFSSVVNEPADMQCPIVEMSTRSKLSCLSWNKHEKNHIASSDYEGIVTVWDVTTRQSLMEYEEHEKRAWSVDFSRTEPSMLVSGSDDCKVKVWCTRQEASVINIDMKANICCVKYNPGSSNYIAVGSADHHIHYYDLRNISQPLHVFSGHKKAVSYVKFLSNNELASASTDSTLRLWDVKDNLPVRTFRGHTNEKNFVGLTVNSEYLACGSETNEVYVYHKEITRPVTSHRFGSPDMDDAEEEAGSYFISAVCWKSDSPTMLTANSQGTIKVLVLAA
# Target: T1, HY5-S36A-GFP (Arabidopsis thaliana, UniProt O24646 1-168, S36A)
# T1 sequence (looked up): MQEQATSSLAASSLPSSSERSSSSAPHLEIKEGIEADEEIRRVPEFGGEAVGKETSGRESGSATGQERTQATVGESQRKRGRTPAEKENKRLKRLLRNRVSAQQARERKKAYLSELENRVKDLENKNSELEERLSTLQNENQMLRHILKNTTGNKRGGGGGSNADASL
# Assay: co-IP
binder,measurement,value
B1,"fold of COP1 co-immunoprecipitated, against the HY5-S36D-GFP line",4 fold
